# Key:
# [1] = molecular target: CD3-ε (human (endogenous in HPB-ALL)) (UniProt P07766); assay: co-IP
# [2] = molecular target: the molecule itself; assay: non-reducing and reducing SDS-PAGE with Western blot
# Sequence of CD3-ε (human (endogenous in HPB-ALL)) (P07766 23-207): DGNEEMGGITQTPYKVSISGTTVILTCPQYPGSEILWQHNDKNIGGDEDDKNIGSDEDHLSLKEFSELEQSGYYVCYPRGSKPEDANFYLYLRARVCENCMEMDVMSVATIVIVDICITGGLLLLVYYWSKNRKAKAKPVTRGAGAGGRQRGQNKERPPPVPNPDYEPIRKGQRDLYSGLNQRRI
reduction of TRIM in the lysate after depletion of CD3 [1] [%],Molecule,stoichiometry N [2]
67,T cell receptor interacting molecule (TRIM) (from UniProt Q6PIZ9 1-186) (natural protein),
,T cell receptor interacting molecule (TRIM) (natural protein) MSGISGCPFFLWGLLALLGLALVISLIFNISHYVEKQRQDKMYSYSSDHTRVDEYYIEDTPIYGNLDDMISEPMDENCYEQMKARPEKSVNKMQEATPSAQATNETQMCYASLDHSVKGKRRKPRKQNTHFSDKDGDEQLHAIDASVSKTTLVDSFSPESQAVEENIHDDPIRLFGLIRAKREPIN,2

# Source: publication PMC2212462 (The Journal of Experimental Medicine, 1998)
